Measured values taken from patent US20060089302A1, “Hsp70-derived peptides and uses thereof in the diagnosis and treatment of autoimmune diseases” (priority 2002, published 2006).
Where “and” joins values, the source holds several entries; their conditions need not be identical. Equal entries are not always repeated.

What was measured:
[1] = test system: peripheral blood mononuclear cells (PBMC) / T-cells; conditions: 25 newly diagnosed Type 1 Diabetes adult patients; Abulafia-Lapid et al. 1999; cited from earlier work
[2] = test system: serum IgG anti-hsp60, anti-hsp70, anti-hsp90, anti-tetanus toxoid; test: Determination of auto-antibodies (antibody capture ELISA on antigen-coated plates); assay type: binding, human; conditions: for IgG antibodies to the antigen in serum, Mean ± SD: group mean
Protocol: All of the serum samples that were collected were stored in aliquotes at −20° C. and thawed before each assay. Total human IgG anti-hsp60, anti-hsp70, and anti-hsp90, as well as anti-tetanus toxoid proteins were detected by the antibody capture-type enzyme immunoassay ELISA [Maggio, M. T. (1981) Enzyme Immunoassay, CRC Press, Boca Raton, USA]. 96-well micro titer plates (Dynatech) were coated with the protein according to the antibody being tested. Serum samples were distributed at dilutions in the range of 1:50 to 1:70 into the pre-coated wells for the protein detection assay. Thus, any IgG anti-hsp60, anti-hsp70, anti-hsp90, or anti-tetanus toxoid present should be bound by the immobilized peptide or protein. After washing off unbound material, a mouse monoclonal anti-human IgG antibody conjugated to alkaline phosphatase (AP) was added to the wells. After an additional washing step to remove any unbound anti-enzyme reagent, the AP substrate p-nitrophenyl phosphate (pNPP) solution was added. The intensity of the color developed was measured using an Anthos htll ELISA reader at λ=405 nm. The amount of antibody detected was represented as Units of Optical Density at λ=405 nm. Patients and control subjects were assayed in the same experiment.
The InStat 2.01 computer program was used for the statistical analysis. The results obtained from the samples of healthy individuals were used to determine the cutoff for each assay, which was established as the mean plus two standard deviations (SDs). […] The results were presented as the percentage of positive from the total tested group.
Levels of IgG antibodies to hsp60, hsp70, and hsp90 were measured in the sera of 20 Type 1 Diabetes children (P1-P5, P7-P21; Table 3A) and two control groups, 10 normoglycemic children (Table 3B) and 15 healthy adult blood donors (Table 3C). The level of the antibodies was scored as positive when it was greater than the cut-off level (cut-off levels were established based on the mean value of antibody levels from the normoglycemic children plus two standard deviations).

[3] = test system: peripheral blood mononuclear cells (PBMC) / T-cells; test: T-cell proliferation assay (3H-Thymidine incorporation, stimulation index); assay type: cell-based, human; conditions: for T-cell proliferative response, S.I., Mean ± SD: group mean

B1: hsp60: recombinant human hsp60 (StressGen, Canada), 60 kDa heat-shock protein (protein)
chain: AKDVKFGADARALMLQGVDLLADAVAVTMGPKGRTVIIEQSWGSPKVTKDGVTVAKSIDLKDKYKNIGAKLVQDVANNTNEEAGDGTTTATVLARSIAKEGFEKISKGANPVEIRRGVMLAVDAVIAELKKQSKPVTTPEEIAQVATISANGDKEIGNIISDAMKKVGRKGVITVKDGKTLNDELEIIEGMKFDRGYISPYFINTSKGQKCEFQDAYVLLSEKKISSIQSIVPALEIANAHRKPLVIIAEDVDGEALSTLVLNRLKVGLQVVAVKAPGFGDNRKNQLKDMAIATGGAVFGEEGLTLNLEDVQPHDLGKVGEVIVTKDDAMLLKGKGDKAQIEKRIQEIIEQLDVTTSEYEKEKLNERLAKLSDGVAVLKVGGTSDVEVNEKKDRVTDALNATRAAVEEGIVLGGGCALLRCIPALDSLTPANEDQKIGIEIIKRTLKIPAMTIAKNAGVEGSLIVEKIMQSSSEVGYDAMAGDFVNMVEKGIIDPTKVVRTALLDAAGVASLLTTAEVVVTEIPKEEKDPGMGAMGGMGGGMGGGMF
Patients tested positive (proliferative response) [1]: 92% | IgG antibodies to the antigen in serum, Mean ± SD ([2]; Type 1 Diabetes children): 0.6 Units of Optical Density at λ=405 nm | Positive (antibody level above cut-off) ([2]; Type 1 diabetes children (n=20), cut-off = mean of normoglycemic children plus two SD): 45% | Positive (antibody level above cut-off) ([2]; Type 1 diabetes children (n=20), cut-off = mean of normoglycemic children plus two SD, listed as Hsp60): 45% | Positive (antibody level above cut-off) ([2]; healthy adult blood donors (n=15)): 6% | Positive (antibody level above cut-off) ([2]; healthy adult blood donors (n=15), listed as Hsp60): 6.6% | IgG antibodies to the antigen in serum, Mean ± SD ([2]; healthy adult blood donors): 0.61 ± 0.12 Units of Optical Density at λ=405 nm | Positive (antibody level above cut-off) ([2]; pediatric control serum donors / healthy children (n=10)): 10% | Positive (antibody level above cut-off) ([2]; pediatric control serum donors / healthy children (n=10), listed as Hsp60): 10% | IgG antibodies to the antigen in serum, Mean ± SD ([2]; pediatric control serum donors): 0.45 ± 0.11 Units of Optical Density at λ=405 nm | T-cell proliferative response, Stimulation Index (S.I.) [3]: 1.25 | T-cell proliferative response, S.I., Mean ± SD ([3]; Healthy subjects): 1.79±0.74 and 1.7 ± 0.72 | T-cell response, in words ([3]; Type 1 Diabetes adult patients (Table 1D), tested after more than 12 weeks): not seen | T-cell proliferative response, S.I., Mean ± SD ([3]; Type 1 Diabetes adult patients): 1.22 ± 0.36 | Responding subjects (S.I.≥2) ([3]; Type 1 Diabetes children): 85% | T-cell proliferative response, S.I., Mean ± SD ([3]; Type 1 Diabetes children): 3.6±2.6 | T-cell proliferative response, S.I., Mean ± SD ([3]; Type 2 Diabetes patients): 1.7 ± 0.75 | Responding subjects (S.I.≥2) ([3]; healthy subjects / healthy blood donors): 39%
